# Experimental data: patent US20190112342A1 (UNIVERSITY OF CHICAGO, published 2019)
# B1: full-length strep-tagged Coa (CoaST) (other)
# chain: IVTKDYSGKSQVNAGSKNGTLIDSRYLNSALYYLEDYIIYAIGLTNKYEYGDNIYKEAKDRLLEKVLREDQYLLERKKSQYEDYKQWYANYKKENPRTDLKMANFHKYNLEELSMKEYNELQDALKRALDDFHREVKDIKDKNSDLKTFNAAEEDKATKEVYDLVSEIDTLVVSYYGDKDYGEHAKELRAKLDLILGDTDNPHKITNERIKKEMIDDLNSIIDDFFMETKQNRPKSITKYNPTTHNYKTNSDNKPNFDKLVEETKKAVKEADDSWKKKTVKKYGETETKSPVVKEEKKVEEPQAPKVDNQQEVKTTAGKAEETTQPVAQPLVKIPQGTITGEIVKGPEYPTMENKTVQGEIVQGPDFLTMEQSGPSLSNNYTNPPLTNPILEGLEGSSSKLEIKPQGTESTLKGTQGESSDIEVKPQATETTEASQYGPRPQFNKTPKYVKYRDAGTGIREYNDGTFGYEARPRFNKPSETNAYNVTTHANGQVSYGARPTYKKPSETNAYNVTTHANGQVSYGARPTQNKPSKTNAYNVTTHGNGQVSYGARPTQNKPSKTNAYNVTTHANGQVSYGARPTYKKPSKTNAYNVTTHADGTATYGPRVTK
# notes: Purified over Strep-Tactin-Sepharose; Used in the plasma pull-down and in the prothrombin and fibrinogen interference ELISAs; not shown: Strep tag
# B2: R domain of Coa Newman with C-terminal Strep tag (RST) (other)
# chain: EARPRFNKPSETNAYNVTTHANGQVSYGARPTYKKPSETNAYNVTTHANGQVSYGARPTQNKPSKTNAYNVTTHGNGQVSYGARPTQNKPSKTNAYNVTTHANGQVSYGARPTYKKPSKTNAYNVTTHADGTATYG
# notes: Encoded by plasmid pET15b-rST; also called repeat (R) domain; not shown: C-terminal Strep tag
# Biological target: T1, human prothrombin (human, UniProt P00734 44-622)
# T1 construct: also called PT
# Assay: affinity chromatography of human citrate-plasma, immunoblot with anti-prothrombin
row,Binder,binding result
1,B1,binds
2,B2,no binding
